Data: PMC4269474 (Cell reports, 2014)

Biological target: the molecule itself
Assay: negative-stain EM single particle reconstruction

B1: Pyrococcus furiosus Cmr4 (natural protein)
chain: KAYLVGLYTLTPTHPGSGTELGVVDQPIQRERHTGFPVIWGQSLKGVLRSYLKLVEKVDEEKINKIFGPPTEKAHEQAGLISVGDAKILFFPVRSLKGVYAYVTSPLVLNRFKRDLELAGVKNFQTEIPELTDTAIASEEITVDNKVILEEFAILIQKDDKGILESVVKAIEQAFGNEMAEKIKGRIAIIPDDVFRDLVELSTEIVARIRINAETGTVETGGLWYEEYIPSDTLFYSLILVTPRAKDNDMALIKEVLGKINGKYLQIGGNETVGKGFVKVTLKEVTNNGGTHAK
With B1 the “stoichiometry N” value was 4.
